The values below come from patent US20220106406A1 (UNIVERSITY OF KENTUCKY RESEARCH FOUNDATION, published 2022).

The target of one assay is T1, 3×FLAG-PRL-2 (human, UniProt Q12974 1-164).
T1 construct: Expressed in HEK293T cells, tested in cell lysate; Order of tag and PRL follows the printed name only; also called 3xFLAG-PRL-2; not shown: 3×FLAG tag from p3×FLAG-CMV-14
T1 sequence (looked up): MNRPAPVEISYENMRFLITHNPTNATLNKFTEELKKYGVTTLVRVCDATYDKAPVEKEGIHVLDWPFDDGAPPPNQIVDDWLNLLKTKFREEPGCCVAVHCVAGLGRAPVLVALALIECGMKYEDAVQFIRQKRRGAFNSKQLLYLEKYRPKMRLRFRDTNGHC
As to the kind of experiment: immunoprecipitation from HEK293T lysate with nanobody-coupled Dynabeads, anti-FLAG blot. Here is the method: (§1) HEK293T cells (˜20 million) were lysed for 30 minutes with intermittent vortexing in Pierce IP lysis buffer (Thermo 87788) supplemented with 1% protease inhibitor cocktail (IP buffer) at 500 μl per 10 million cells and spun at 12,000 rpm for 10 minutes at 4° C. to pellet cell debris. Protein concentration was quantified using the Quick Start Bradford 1× Dye Reagent (Biorad, 5000205). 150 μL of nanobody-coupled beads were washed in 1 mL of PBS for 5 minutes, precipitated, then equilibrated in 500 μL of IP buffer for 5 minutes. 2.5 mg of total extracted protein was added to the balanced nanobody-beads complex for incubation with rocking at 4° C. overnight. After washing the beads-protein complex in cold PBS four times, 50 μL 2× Laemmli Sample Buffer (Biorad, 161-0737) with 2-Mercaptoethanol (Fisher Scientific, 034461-100) was added to the beads, the mixture was boiled at 95° C. for 10 minutes, and the supernatant was collected for western blot analysis.
(§2) PRL-3 substrates remain largely undefined, in part due to insufficient tools for cell-based studies. The current commercially available PRL-3 antibodies have not been extensively validated for specificity towards PRL-3 over other PRLs. To address this, the ability of the anti-PRL-3 nanobodies to identify PRL-3 protein in cell lysate was tested. Anti-PRL-3 nanobodies were coupled to superparamagnetic Dynabeads® M-270 Epoxy beads and used in immunoprecipitation of HEK293T cells expressing either 3×FLAG-PRL-1, -2, or -3. All nanobodies selectively pulled-down 3×FLAG-PRL-3 over PRL-1 and PRL-2, as assessed by anti-FLAG immunoblot (FIGS. 7A and 9A-I). Some nanobodies were more specific to PRL-3 than others; nanobodies 4, 16, 19, and 84 pulled down small amounts of 3×FLAG-PRL-1 and/or PRL-2 (FIG. 3A). Successful nanobody coupling to Dynabeads was confirmed by the presence of 6×-His-tag in all samples (FIG. 3B). […] In total, anti-PRL-3 nanobodies 10, 26, and 91 can be used to specifically immunoprecipitate PRL-3, with no binding to PRL-1 or PRL-2.

For another assay, the target named is T2, 3×FLAG-PRL-1 (human, UniProt Q93096 1-170).
T2 construct: Expressed in HEK293T cells, tested in cell lysate; Order of tag and PRL follows the printed name only; also called 3xFLAG-PRL-1; not shown: 3×FLAG tag from p3×FLAG-CMV-14
T2 sequence (looked up): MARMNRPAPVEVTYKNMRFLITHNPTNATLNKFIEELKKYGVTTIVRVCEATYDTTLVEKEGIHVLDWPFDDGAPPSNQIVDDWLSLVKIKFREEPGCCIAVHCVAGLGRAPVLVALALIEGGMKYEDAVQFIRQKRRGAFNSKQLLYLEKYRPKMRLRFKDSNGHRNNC
Described as above. As to the method:
as §1, §2

The target in another assay is T3, GFP-PRL-2 (UniProt Q12974 1-164).
T3 construct: Expressed in HCT116 cells, fixed and permeabilized for immunofluorescence; also called CMV:GFP-PRL-2
T3 sequence (looked up): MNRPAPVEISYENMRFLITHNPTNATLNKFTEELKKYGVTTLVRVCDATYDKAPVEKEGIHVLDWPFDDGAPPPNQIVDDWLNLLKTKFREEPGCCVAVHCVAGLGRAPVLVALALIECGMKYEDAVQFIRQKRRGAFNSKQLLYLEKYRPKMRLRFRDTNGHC
As to the kind of experiment: immunofluorescence on fixed, permeabilized transfected HCT116 cells. Here is the method: (§3) HCT116 colorectal cancer cells were transfected with A—CMV:GFP, CMV:GFP-PRL-1, CMV:GFP-PRL-2, or CMV:GFP-PRL-3 for 24 hours prior to cell fixation and permeabilization. Immunofluorescence assays were completed with 1:1000 1 mg/mL NB91 followed by 1:400 Alexa Fluor® 594-AffiniPure Goat Anti-Alpaca IgG, VHH domain and show nanobodies detect PRL-3 but not PRL-1 or PRL-2.
(§4) Transfected cells were plated at 5,000 cells per well in 96-well black glass bottomed plates (Cellvis, P96-1.5H-N). All solution exchanges and imaging occurred in the 96-well plate. 24 hours post-transfection cells were fixed in 4% paraformaldehyde (VWR, AAJ61899-AK) for 15 minutes, rinsed in PBS, permeabilized for 10 minutes in 1% 100× Triton (Sigma, X100-100), and rinsed in PBS. Blocking solution of 2% BSA in PBS was applied for 1 hour to all wells. All nanobodies were diluted to 1 mg/ml in blocking solution, and further diluted 1:1000 and incubated with the cells for 1 hour at room temperature followed by five PBS washes. Detection was carried out using an anti-alpaca IgG VHH conjugated to Alexa Fluor-594 (Jackson ImmunoResearch, 128-585-232) diluted 1:400 in blocking solution, and counterstained with Hoechst, 1:1000 dilution (ThermoFisher, H3570). All wells were washed in PBS five times prior to imaging. Images were acquired with a Nikon MR confocal using the 40× water objective. […]

The target of another assay is T4, GFP-PRL-1 (UniProt Q93096 1-170).
T4 construct: Expressed in HCT116 cells, fixed and permeabilized for immunofluorescence; also called CMV:GFP-PRL-1
T4 sequence (looked up): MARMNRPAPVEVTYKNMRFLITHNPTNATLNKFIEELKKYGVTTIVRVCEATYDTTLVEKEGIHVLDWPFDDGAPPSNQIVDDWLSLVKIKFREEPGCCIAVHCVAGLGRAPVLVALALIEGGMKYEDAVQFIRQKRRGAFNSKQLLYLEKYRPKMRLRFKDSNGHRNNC
Described as above. Here is the method: as §3, §4

B1: NB26 (VHH)
VHH: QVQLQESGGGLVQPGGSLKLSCVVTGLHYYTEGWFRQAPGKEREGVSCISSSDGRTDYIDSVKGRFTISEDNDNKTVYLQMNTLKPDDTGVYYCVAERGPRGSTWWETYDYWGQGTHVTVSS
notes: Alpaca nanobody, C-terminal 6xHis tag intact; also called nanobody 26; Nanobody 26
Regarding B1, the binding result with 3×FLAG-PRL-2 and with 3×FLAG-PRL-1 was “no binding” each time.

B2: NB91 (VHH)
VHH: QVQLQESGGGLVQTGGSLRLSCAASQSTFNFDVMGWYRLAPGKQREFLTSITNGGNIYYADSVKGRFTIARDDSKTTMYLEMNSLKPEDTAVYTCYGQTHKPRVTTSWGQGTQVTVSS
notes: Alpaca nanobody expressed from pMES4 in E. coli; also called nanobody 91; Nanobody 91
Turning to B2, the binding result in the assay with 3×FLAG-PRL-2 was “no binding”; with 3×FLAG-PRL-1, “no binding”; with GFP-PRL-2 it was “no binding (tested: 1:1000 of 1 mg/mL)”; in the assay with GFP-PRL-1, “no binding (tested: 1:1000 of 1 mg/mL)”.

B3: NB10 (VHH)
VHH: QVQLQESGGGLVQTGGSLRLSCAASQSTFNFNVMGWYRLAPGKQREFLPSLTNGGNIYYADSVKGRFTIARDDSKTTTYLEMNSLKPEDTAVYTCYGQTHKPRVTTSWGQGTQVTVSS
notes: Alpaca nanobody, C-terminal 6xHis tag intact; also called nanobody 10
As to B3, the binding result with 3×FLAG-PRL-2 and in the assay with 3×FLAG-PRL-1 was “no binding” in each case.
